In patent US20260242478A1 (published 2026):
Where no end group is shown, it is not given here.

B1: Phage-3420 (peptide)
peptide: NDVKCIPEWMCVGF
notes: Peptide-180 library clone, tested as clonal phage supernatant; not shown: fused to the pIII filament protein of the bacteriophage
B2: Phage-3421 (peptide)
peptide: TDPLCIPEWMCQGM
notes: as for B1
B3: Phage-3422 (peptide)
peptide: LSTLCIPQWMCTGL
notes: as for B1
B4: Phage-3375 (peptide)
peptide: QEIYCVPEWMCSWF
B5: Phage-3376 (peptide)
peptide: EYIRCVPSWMCLDL
B6: Phage-3377 (peptide)
peptide: HDLRCVPEWMCYGL
B7: Phage-3406 (peptide)
peptide: AQGVCIPQWMCDGF
modifications: cysteine pairing not given here; also: fused to pIII of bacteriophage
B8: Phage-3407 (peptide)
peptide: SEILCRPAWMCTGF
B9: Phage-3408 (peptide)
peptide: GDHYCKPDWMCSGF
B10: Phage-3409 (peptide)
peptide: DTFMCRPSWMCNGF
B11: Phage-3410 (peptide)
peptide: VEPLCRPMWMCEGI
B12: Phage-3411 (peptide)
peptide: SLAQCVPEWMCFGF
B13: Phage-3412 (peptide)
peptide: ELVRCIPVWMCQGF
B14: Phage-3413 (peptide)
peptide: SVKVCKPAWMCAGF
modifications: cysteine pairing not given here; also: fused to pIII of bacteriophage
B15: Phage-3414 (peptide)
peptide: DFVRCVPDWMCQGF
B16: Phage-3415 (peptide)
peptide: METWCVPTWMCTGF
B17: Phage-3416 (peptide)
peptide: DTWICKPEWMCMGF
B18: Phage-3417 (peptide)
peptide: VERACRPVWMCQGF
B19: Phage-3418 (peptide)
peptide: IMPTCVPQWMCNGF
B20: Phage-3419 (peptide)
peptide: MLPYCVPQWMCMGF
B21: Phage-3378 (peptide)
peptide: DVRLCRPSWMCSGF
B22: Phage-3379 (peptide)
peptide: QVPMCKPMWMCAGF
modifications: cysteine pairing not given here; also: fused to pIII of bacteriophage
B23: Phage-3380 (peptide)
peptide: AEVRCVPQWMCFGL
B24: Phage-3381 (peptide)
peptide: EMRYCVPRWMCEGF
B25: Phage-3382 (peptide)
peptide: VEPLCRPFWMCVGF
B26: Phage-3383 (peptide)
peptide: NGALCKPVWMCQGF
B27: Phage-3384 (peptide)
peptide: LEVHCRPSWMCVGF
B28: Phage-3385 (peptide)
peptide: ILPQCVPSWMCEGF
B29: Phage-3386 (peptide)
peptide: FTALCKPMWMCRGF
B30: Phage-3387 (peptide)
peptide: FSVRCVPEWMCAGF
modifications: cysteine pairing not given here; also: fused to pIII of bacteriophage
B31: Phage-3388 (peptide)
peptide: MQMMCKPDWMCEGF
B32: Phage-3389 (peptide)
peptide: IGAMCEPKWMCFGF
modifications: cysteine pairing not given here; also: fused to pIII of bacteriophage
B33: Phage-3390 (peptide)
peptide: QGTLCVPSWMCSGF
B34: Phage-3391 (peptide)
peptide: IEAVCKPSWMCAGF
modifications: cysteine pairing not given here; also: fused to pIII of bacteriophage

The binders below were run against T1, PSMA Fab (006 PSMA Fab) (biotinylated (site not stated)) (assay: clonal phage ELISA on captured anti-PSMA Fab pre-incubated with PSMA antigen (competitor: PSMA)).
T1 construct: That the same Fab was used in the panning ELISA is inferred; also called Anti-PSMA Fab; anti-PSMA Fab

| Binder | phage binding ELISA signal in the presence of PSMA |
| --- | --- |
| B1 | 0.0849 |
| B2 | 0.0726 |
| B3 | 0.0813 |

What follows are binders tested against T2, PSMA Fab (006 PSMA Fab) (biotinylated (site not stated)) (assay: clonal phage ELISA on biotinylated PSMA Fab captured on neutravidin, anti-M13 HRP detection, no PSMA).
T2 construct: In the clonal phage ELISA the biotinylated PSMA Fab was captured on neutravidin coated plates; also called Anti-PSMA Fab

| Binder | Phage binding ELISA signal, Anti-PSMA Fab |
| --- | --- |
| B4 | 1.81 |
| B5 | 1.81 |
| B6 | 1.81 |

Each binder was assayed against T3, PSMA Fab (assay: clonal phage ELISA; biotinylated PSMA Fab on neutravidin plate, pre-incubated with PSMA antigen as competitor; anti-M13 HRP detection).
T3 construct: also called Anti-PSMA Fab; 006 PSMA Fab
Method: (§1) Clonal phage were harvested as crude supernatants and screened via standard ELISAs. […] Prior to the addition of clonal phage. wells were incubated with blocking buffer and PSMA antigen or blocking buffer alone. Without washing or aspirating, clonal phage supernatants were then added to the wells and incubated for a short time. Wells were then washed followed by detection of bound phage using a horse radish conjugated anti-M13 antibody.

| Binder | Phage binding ELISA signal, Anti-PSMA Fab with PSMA antigen |
| --- | --- |
| B7 | 0.0715 |
| B8 | 0.104 |
| B9 | 0.071 |
| B10 | 0.072 |
| B11 | 0.122 |
| B12 | 0.113 |
| B13 | 0.368 |
| B14 | 0.102 |
| B15 | 0.0627 |
| B16 | 0.0748 |
| B17 | 0.0802 |
| B18 | 0.0907 |
| B19 | 0.093 |
| B20 | 0.147 |

These binders were tested against T1, PSMA Fab (006 PSMA Fab) (assay: clonal phage ELISA on biotinylated anti-PSMA Fab captured on neutravidin, anti-M13-HRP detection).
Method: as §1

| Binder | phage binding ELISA signal |
| --- | --- |
| B1 | 1.78 |
| B2 | 1.78 |
| B3 | 1.78 |

The binders below were run against T4, PSMA Fab (biotinylated (site not stated)) (assay: clonal phage ELISA on captured PSMA Fab pre-incubated with PSMA antigen as competitor, anti-M13-HRP detection;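 further: wells blocked with buffer plus PSMA antigen before phage addition, with blocking buffer alone as the no-competitor control, bound phage detected after washing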).
T4 construct: Biotinylated PSMA Fab captured on neutravidin coated plates in the phage ELISA; also called anti-PSMA Fab; 006 PSMA Fab

| Binder | Phage binding ELISA signal, Anti-PSMA Fab with PSMA antigen |
| --- | --- |
| B21 | 0.0682 |
| B22 | 0.0921 |
| B23 | 0.0952 |
| B24 | 0.095 |
| B25 | 0.127 |
| B26 | 0.0702 |
| B27 | 0.062 |
| B28 | 0.106 |
| B29 | 0.0718 |
| B30 | 0.0701 |
| B31 | 0.0755 |
| B32 | 0.118 |
| B33 | 0.0523 |
| B34 | 0.0703 |

These binders were tested against T4, PSMA Fab (assay: clonal phage ELISA on biotinylated PSMA Fab captured on neutravidin plates, anti-M13-HRP detection;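 further: crude clonal phage supernatants added to wells preincubated with PSMA antigen or with blocking buffer only (no wash between), briefly incubated, then washed before detecting bound phage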).
Method: as §1

| Binder | Phage binding ELISA signal, Anti-PSMA Fab |
| --- | --- |
| B21 | 1.81 |
| B22 | 1.81 |
| B23 | 1.81 |
| B24 | 1.81 |
| B25 | 1.81 |
| B26 | 1.81 |
| B27 | 1.81 |
| B28 | 1.81 |
| B29 | 1.81 |
| B30 | 1.8 |
| B31 | 1.8 |
| B32 | 1.8 |
| B33 | 1.8 |
| B34 | 1.8 |

What follows are binders tested against T2, PSMA Fab (006 PSMA Fab) (assay: clonal phage ELISA on captured PSMA Fab pre-incubated with PSMA antigen as competitor;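 further: crude clonal phage supernatants added to wells without washing away the PSMA competitor, bound phage detected by HRP-conjugated anti-M13 antibody, reference wells received blocking buffer only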).
Method: as §1

| Binder | Phage binding ELISA signal, Anti-PSMA Fab with PSMA antigen |
| --- | --- |
| B4 | 0.0642 |
| B5 | 0.0615 |
| B6 | 0.0734 |

What follows are binders tested against T3, PSMA Fab (assay: clonal phage ELISA; biotinylated PSMA Fab on neutravidin plate, blocking buffer alone; anti-M13 HRP detection;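 further: crude clonal phage supernatants added without washing to wells pretreated with blocking buffer with or without PSMA antigen, short incubation, then washed before detecting bound phage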).
Method: as §1

| Binder | Phage binding ELISA signal, Anti-PSMA Fab |
| --- | --- |
| B7 | 1.79 |
| B8 | 1.79 |
| B9 | 1.79 |
| B10 | 1.79 |
| B11 | 1.79 |
| B12 | 1.79 |
| B13 | 1.79 |
| B14 | 1.79 |
| B15 | 1.79 |
| B16 | 1.79 |
| B17 | 1.78 |
| B18 | 1.78 |
| B19 | 1.78 |
| B20 | 1.78 |
